Measured values: patent publication US8178319B2, “Peptides and uses thereof” (priority 2008, dated 2012)

Experiments:
[1] = system: wheat-germ agglutinin isolated B-domain (WGA-B); conditions: monovalent form of wheat-germ agglutinin (B-domain); Espinosa et al, 2000; cited from earlier work
[2] = system: human type 0 erythrocytes; experiment: Hemagglutination activity with human type 0 erythrocytes; assay type: cell-based; conditions: 2% human type 0 erythrocytes in PBS, room temperature, 1 h; for minimum lectin concentration that gave hemagglutination (molar): approximate conversion of μg/ml
Description: The hemagglutination activity of full length rAAL and Mono-F2 (SEQ ID NO: 4) was determined by serial dilutions of the lectins in PBS and mixing with an equal volume (50μL) of 2% human type 0erythrocytes suspended in PBS. After incubation at room temperature for 1h the minimum lectin concentration that gave a positive reaction was determined.

[3] = ELISA binding of biotinylated lectin to oligosaccharide glycoconjugates; conditions: for ELISA binding to non-fucosylated oligosaccharide LNT: LNT-BSA coated wells, absorbance 405 nm; for ELISA binding specificity towards fucosylated oligosaccharides: LNnF I, LNF II, LNF III, B-tri, SLex, SLea conjugates, absorbance 405 nm (FIG. 7)
Description: Purified Mono-F2 (SEQ ID NO: 4) and full length rAAL were biotinylated using IMMUNOPROBE™ Biotinylation Kit (Sigma-Aldrich, Stockholm, Sweden) according to the manufacturer's instruction. The biotin/protein ratio was determined to 1.1 biotin moieties per protein molecule for both Mono-F2 (SEQ ID NO: 4) and rAAL. Microtiter plates (Nunc MaxiSorp™ eBioscience, San Diego, CA) were coated with 0.2 μg of LNnF I-BSA, LNF II-BSA, LNF III-HSA, LNT-BSA; 0.1 μg of B-tri-HSA, SLex-HSA and SLea-HSA in 100 μL coating buffer (15 mM Na2CO3, 35 mM NaHCO3, 0.02% NaN3, pH 9.6). Then 100 μL of biotinylated Mono-F2 (SEQ ID NO: 4) or full length rAAL was added to the wells. After addition of ExtrAvidin (E-2632 Sigma-Aldrich, Stockholm, Sweden) and phosphatase substrate (Sigma 104®, Sigma-Aldrich, Stockholm, Sweden) the amount of Mono-F2 (SEQ ID NO: 4) or full length AAL binding to each well were measured at 405 nm using a VERSAmax microplate reader (Molecular Devices Corporation, Sunnyvale, CA).
To analyze whether the His-tag on Mono-F2 (SEQ ID NO: 4) affected the fucose binding the ELISA analysis was also performed using Mono-F2 (SEQ ID NO: 4) pre-treated with thrombin protease to remove the His-tag. Biotin labelled Mono-F2 (SEQ ID NO: 4) (50μg) in PBS was incubated with 2 units of thrombin protease (Amersham Biosciences, Uppsala, Sweden) for 2 hours at room temperature.

[4] = Affinity chromatography on fucose-agarose column; assay type: binding
Description: Purified Mono-F2 (SEQ ID NO: 4) was analyzed on a 1 mL fucose-agarose column (Sigma-Aldrich, Stockholm, Sweden). The column was equilibrated with 20mL PBS. Mono-F2 (SEQ ID NO: 4) was added and the column was incubated for 20 minutes at 4° C. with gentle rocking. After incubation the column was washed with PBS until the absorbance at 280 nm had reached zero. Elution was performed with 4 mL of 0.15 M L-fucose in PBS, 4 mL of 1 M L-fucose in PBS, and lastly with glycine buffer pH 2.5. Fractions (1 mL) were collected with monitoring of absorbance at 280 nm. The fractions were further analysed by SDS-PAGE.

[5] = Oligosaccharide affinity chromatography on silica column with immobilized Mono-F2; assay type: binding, human
Description: FIG. 5 - chromatograms of some fucosylated human milk oligosaccharides (LNnF I, LNF II and LNF III) and a non-fucosylated control (LNT) on a silica column with immobilized Mono-F2 (SEQ ID NO: 4).
Mono-F2 (SEQ ID NO: 4) was immobilized on silica particles (5μM, 300 Å) and packed in an affinity column (50×0.32 mm) and chromatography of a number of oligosaccharides were examined. […] Elutions of oligosaccharides were detected by UV absorbance at 210 nm.

Molecule	minimum lectin concentration that gave hemagglutination [2]	minimum lectin concentration that gave hemagglutination (molar) [2]	ELISA binding to non-fucosylated oligosaccharide LNT [3]	ELISA binding specificity towards fucosylated oligosaccharides [3]	also measured
CC(=O)N[C@H]1[C@H](O[C@H]2[C@H](O)[C@@H](NC(C)=O)C(O)O[C@@H]2CO)O[C@H](CO)[C@@H](O[C@@H]2O[C@H](CO)[C@@H](O)[C@H](O)[C@H]2NC(C)=O)[C@@H]1O (stereo partly drawn) [chitotriose, N,N′, N″-triacetylchitotriose]					binding affinity [1]: millimolar range
rAAL: Recombinant full length His-tagged Aleuria aurantia lectin (protein, UniProt P18891 2-313, looked up, His-tag, Recombinant full length His-tagged Aleuria aurantia lectin) Fucose-specific lectin: PTEFLYTSKIAAISWAATGGRQQRVYFQDLNGKIREAQRGGDNPWTGGSSQNVIGEAKLFSPLAAVTWKSAQGIQIRVYCVNKDNILSEFVYDGSKWITGQLGSVGVKVGSNSKLAALQWGGSESAPPNIRVYYQKSNGSGSSIHEYVWSGKWTAGASFGSTVPGTGIGATAIGPGRLRIYYQATDNKIREHCWDSNSWYVGGFSASASAGVSIAAISWGSTPNIRVYWQKGREELYEAAYGGSWNTPGQIKDASRPTPSLPDTFIAANSSGNIDISVFFQASGVSLQQWQWISGKGWSIGAVVPTGTPAGW	2.5 µg/mL	~0.071 µM	only low background binding	bound to all fucosylated oligosaccharides	
Mono-F2: Recombinant His-tagged monovalent fucose-binding fragment of Aleuria aurantia lectin, site 2 (AAL aa 51-161) (protein, listed as Aleuria aurantia, His tag) SQNVIGEAKLFSPLAAVTWKSAQGIQIRVYCVNKDNILSEFVYDGSKWITGQLGSVGVKVGSNSKLAALQWGGSESAPPNIRVYYQKSNGSGSSIHEYVWSGKWTAGASFG	> 200 µg/mL	> 14 µM	only low background binding	binding only non-sialylated oligosaccharide structures with α1-2 or α1-4 linked fucose	elution from fucose-agarose column with 0.15 M L-fucose ([4]; 4 mL of 0.15 M L-fucose in PBS): could not be eluted; elution from fucose-agarose column with 1 M L-fucose ([4]; 4 mL of 1 M L-fucose in PBS): Very little was eluted; binding to immobilized fucose (conclusion; low-pH buffer needed for full elution) ([4]; glycine buffer pH 2.5 needed for full elution): high affinity binding to fucose; retention of non-fucosylated LNT on immobilized Mono-F2 column ([5]; LNT (non fucosylated) control): not bound to the column; retention of fucosylated oligosaccharides LNF I, LNF II and LNF III on immobilized Mono-F2 column ([5]; increasing retention times LNF I, LNF II, LNF III, UV 210 nm): retarded on the column
Mono-F2-T: Mono-F2 pre-treated with thrombin protease to remove the His-tag (protein, listed as Aleuria aurantia, His-tag removed by thrombin) SQNVIGEAKLFSPLAAVTWKSAQGIQIRVYCVNKDNILSEFVYDGSKWITGQLGSVGVKVGSNSKLAALQWGGSESAPPNIRVYYQKSNGSGSSIHEYVWSGKWTAGASFG					ELISA binding compared with non-treated Mono-F2 ([3]; LNnF I-, LNF II- and LNF III-BSA conjugates, His-tag removed with thrombin (FIG. 8)): identical binding
